Source: the supplement of paper PMC10567573

B1: ZNF232 (parent)
chain: FPKSEQVYLHFLSVVTEDGPEPKD

Variants of: B1
Test: protein stability index of a GFP-peptide fusion (GPS, HEK-293T) (PSI 1-6); higher = more stable
Details: c terminus: a fixed tail appended
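Note: lentivirally expressed fusions sorted by FACS into six bins by GFP to DsRed ratio, PSI derived from sequencing read proportions per bin multiplied by bin number.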

Protein stability index, by site and new letter:
K3: C 2.51, T 2.75, L 3.27, H 2.09, M 2.69, W 1.95
V14: P 3.14, N 3.09, T 2.23, C 1.92, D 3.72
S4: M 2.35, V 1.61, D 2.24, Y 3.17, K 1.89, H 2.26
K23: I 2.06, F 1.63, G 1.83, W 1.7, E 2.13, D 1.82
G19: Q 2.49, L 1.93, P 2.21, M 2.05, C 1.95, H 2.32, Y 1.33, W 1.47
E5: V 2.58, H 2.31, Y 1.19, W 2.02, P 1.75, M 2.04, F 2.35, S 1.7, G 1.61
F11: P 3.74, M 2.06, W 2.08, Y 2.29, L 2.41, R 2.83, K 3.17, E 4.55, H 2.99, T 2.27, D 3.73
P2: H 1.54, C 2.75, T 2.68, E 4.04, Q 2.14, V 2.26, W 2.44, G 2.78, K 2.91
F1: Q 4.75, A 4.31, Y 2.01, I 3.73, N 4.29, T 4.05, E 4.82, R 3.89, V 3.92, L 3.95
Y8: L 2.14, G 2.15, A 2.46, Q 3.33, D 3.55, N 2.01
D24: H 1.35, V 2.37, S 1.71, N 1.82, T 1.75, E 2.12, Q 2.95
P20: R 2.15, I 2.25, V 1.76, T 2.72, D 2.53, K 2.47, G 2.5
D18: R 1.47, G 2.32, L 2.61, F 3.47
E21: V 2.97
H10: G 2.24, D 3.04, C 2.81, K 2.73, A 3.29, M 2.65
P22: C 1.34, A 1.85, W 1.83, S 1.81, I 2
L12: C 2.07, Q 3.99, E 3.96, D 3.67, K 3.6, N 3.61, H 3.49
E17: T 2.08, Y 2.15, N 1.66, I 1.77, M 2.51, K 2, S 1.65
S13: K 2.48, N 2.46, G 1.5, E 2.98, D 3.54, P 2.14, C 2.31, Y 3.15
T16: Y 2.07, L 1.85, V 1.81, S 2.31, P 3.37, W 1.89, N 2.42, H 2.68, A 2.31
L9: R 2.11, T 2.62, H 2.53, P 2.58, M 1.29, S 2.32, Y 2.53
V7: Y 1.02, H 1.61, L 2.32, S 2.59, N 2.27, P 2.97, A 2.2, C 1.63, K 3.21, D 1.91
V15: E 3.1, Y 2.43, M 2.88, F 2.44, W 1.47, K 2.27
Q6: F 1.9, T 2.37, M 1.6, I 2.23, L 2.18, V 1.21, K 1.86
